From IntAct's records for PubMed 31749804

B1: Complement C1r subcomponent (Homo sapiens), P00736 (parent)
chain: MWLLYLLVPALFCRAGGSIPIPQKLFGEVTSPLFPKPYPNNFETTTVITVPTGYRVKLVFQQFDLEPSEGCFYDYVKISADKKSLGRFCGQLGSPLGNPPGKKEFMSQGNKMLLTFHTDFSNEENGTIMFYKGFLAYYQAVDLDECASRSKSGEEDPQPQCQHLCHNYVGGYFCSCRPGYELQEDTHSCQAECSSELYTEASGYISSLEYPRSYPPDLRCNYSIRVERGLTLHLKFLEPFDIDDHQQVHCPYDQLQIYANGKNIGEFCGKQRPPDLDTSSNAVDLLFFTDESGDSRGWKLRYTTEIIKCPQPKTLDEFTIIQNLQPQYQFRDYFIATCKQGYQLIEGNQVLHSFTAVCQDDGTWHRAMPRCKIKDCGQPRNLPNGDFRYTTTMGVNTYKARIQYYCHEPYYKMQTRAGSRESEQGVYTCTAQGIWKNEQKGEKIPRCLPVCGKPVNPVEQRQRIIGGQKAKMGNFPWQVFTNIHGRGGGALLGDRWILTAAHTLYPKEHEAQSNASLDVFLGHTNVEELMKLGNHPIRRVSVHPDYRQDESYNFEGDIALLELENSVTLGPNLLPICLPDNDTFYDLGLMGYVSGFGVMEEKIAHDLRFVRLPVANPQACENWLRGKNRMDVFSQNMFCAGHPSLKQDACQGDSGGVFAVRDPNTDRWVATGIVSWGIGCSRGYGFYTKVLNYVDWIKKEMEEED
partner: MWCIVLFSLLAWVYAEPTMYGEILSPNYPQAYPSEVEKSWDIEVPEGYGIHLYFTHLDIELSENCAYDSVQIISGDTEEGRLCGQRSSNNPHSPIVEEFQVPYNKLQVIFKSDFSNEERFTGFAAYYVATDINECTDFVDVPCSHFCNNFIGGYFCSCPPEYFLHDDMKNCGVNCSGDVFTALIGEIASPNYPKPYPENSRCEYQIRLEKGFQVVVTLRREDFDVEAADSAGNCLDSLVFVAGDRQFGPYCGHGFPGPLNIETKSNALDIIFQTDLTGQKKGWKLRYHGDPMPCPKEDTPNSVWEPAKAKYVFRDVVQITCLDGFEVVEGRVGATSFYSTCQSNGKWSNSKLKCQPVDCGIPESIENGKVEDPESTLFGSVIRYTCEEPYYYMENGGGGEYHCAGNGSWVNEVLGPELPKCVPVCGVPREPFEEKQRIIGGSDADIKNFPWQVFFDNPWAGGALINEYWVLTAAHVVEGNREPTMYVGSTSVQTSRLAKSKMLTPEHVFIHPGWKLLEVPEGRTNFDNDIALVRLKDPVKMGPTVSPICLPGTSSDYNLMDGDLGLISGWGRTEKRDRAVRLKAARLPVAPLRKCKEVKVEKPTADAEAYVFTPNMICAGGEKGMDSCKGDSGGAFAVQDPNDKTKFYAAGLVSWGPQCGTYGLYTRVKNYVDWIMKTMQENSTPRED

Variants of: B1
Conditions: with c1s_human C1S

Row | effect of a mutation on the interaction | Variant
1 | with no effect | D290G
